The record followed here is publication PMC3631189.

Targets include hFn14-Fc (human) (UniProt Q9NP84); atacicept; hTACI-Fc.
Experiment in all cases: SEC; gel permeation chromatography on Superdex-200, purified receptors-Fc loaded in 400 µl, eluted in PBS, absorbance at 280 nm

“hFn14-Fc (from UniProt Q9NP84 28-80) (Fc fusion)” gave a stoichiometry N with hFn14-Fc (human) of 2.
In the test with atacicept, atacicept (Fc fusion) gave a stoichiometry N of 2.
In turn, hTACI-Fc (Fc fusion) yielded a stoichiometry N with hTACI-Fc of 2.

What is called stoichiometry N is the number of molecules, sites or subunits per partner or assembly.
